# Results from patent US20260241035A1, “FUNCTIONAL NUCLEIC ACID MOLECULE AND METHOD” (THE UNIVERSITY COURT OF THE UNIVERSITY OF EDINBURGH, priority 2022, published 2026).
# B1: ID3499: enhancer fragment, SEQ ID NO: 36 (nucleic acid)
# DNA: AAGAATGAACTGGGCCCAGCTGGGCATTTGCATCAAAGTGCCTCACCAGAGTTCCCAGCTGCTCTGGCAGAGTGCCCAGGCTTGCCCCAGAGCCCAAACAGAATGCTCTTTGAGATGCCTCTGGTTTTCA
# modifications: listed as DNA, chemistry not given here
# B2: ID0403-2: enhancer fragment, SEQ ID NO: 33 (nucleic acid)
# DNA: ATGTTAAACAGTGAAATCATCAGCAAAAAGCACAAAACTGCAGAAAACATGGCACTAAATAGAACACAAAAAGGACACTTGTTTACAGTATGAGAGCAGAAACAAGGAAACAGTGTTTCCTTGTTCAGCCACAGCTGGGACCTTGTGTGT
# B3: ID1667: enhancer fragment, SEQ ID NO: 30 (nucleic acid)
# DNA: ACCCTTTGCAGAGAGGAAAGAGAAAGGAGGTCTCCTGTTGGGGAGATCTGCTTTAGAGGTTAGGAAGAATGGTGGAGTTGTAAGACATTGGAATCACTGTCTAGGAAGGACAGTGGCCTTTTATCCAGGGCTATTTAAAAACAGACAGAGCTTCATCTAT
# B4: ID4431: enhancer fragment, SEQ ID NO: 35 (nucleic acid)
# DNA: AAATGGTGATTATCATCATTTGTTCAGGGACATTAGCATGAAGGCCGAATGTTCTGGCACAAAGACACGTCTGTGGGACAGGCAC
# modifications: listed as DNA, chemistry not given here
# B5: ID0403-1: enhancer fragment, SEQ ID NO: 32 (nucleic acid)
# DNA: TGCCTCTCTTCCATTGGCATTGGAGTGGCTATAGGCCTTTGGAGGACCTGGCAAAGGGGAAGTTGATTTAGGGGTTCATTGAATTGAGGGGAAGTATGTAAGTGGTTTGCAGTCACTTCCTTGTGTGGTACTCTTGTATAGTAATGATTTCCTGGAATA
# B6: ID4035: enhancer fragment, SEQ ID NO: 29 (nucleic acid)
# DNA: CCCAGACTGCCATCTCCACGGCCCCCACACCAGCACACAGATGCCTCATTCACGTGGTGCTCCCAGGGCCTGGCACCAGTTCTGAGGCTTAAAATAGGCACACAACGGGCCTTTGTCGGATAGAGGAAGGAAGGAAGGAGCGTTTCAGACAAAGGAGACA
# B7: ID2082: enhancer fragment, SEQ ID NO: 28 (nucleic acid)
# DNA: ACAGAAGCCGTTGCTGCAGTAACCACTGCCGCAAGAGCAACTTTGGCAGCAGGCAGGTGCCAGGCAGCAAGCTGAGAGAACACTGACAGATTCAAAGTGTCTTCAGATACAAGGCTTTGTTTGTGCACAGTGAACAAAGGGCATATTGGGAAGGCCTCC
# B8: ID2816: enhancer fragment, SEQ ID NO: 31 (nucleic acid)
# DNA: TTCCTGCATCTGGCCCTCTTTGAGAGCCCCTTGTGTGCCAATGACAAACCCTTCTTTATTTAAGCTCCTCTGAAGTGCCTTCCTGGTCTTGGCAGCTGGACAGGGCCCTGAATAAGACAGCGAGCCTCAATGGCAGGCTACCCCAGGGCTGGGTGACGTA
# Tested on: GSC7 cells
# Assay: Nano-Glo Dual-Luciferase Reporter (Nanoglo DLR) assay of enhancer activity, fold change to mCMV
# Format: cell-based, human
# Conditions: expression fold change of the individual enhancer compared to mCMV
# From the text: We chose an arrayed library format, with 160 bp enhancer fragments individually cloned into separate plasmids and arrayed in 96 well plates. These 160 bp were synthesized as a single pool of oligos, then randomly cloned into the plasmid and isolated. 20 bp×2 were needed for PCR amplification of the pool and so a library of 200 bp fragments was synthesized (Twist Biosciences). To meet our oligo synthesis strategy, ChIP-seq peaks expressed by GSCs were merged into a single oligo. This oligonucleotide pool was PCR-amplified (using limited cycles to reduce bias and ‘jackpot’ products meaning products which are easier to amplify will overtake the oligonucleotide pool) and cloned into the expression vector by an efficient Golden Gate reaction. 4579 individual plasmids were then randomly picked, isolated and plated as an arrayed plasmid DNA library on 96 well plates (×48). The bacterial colony picking and production of plasmid minipreps were supported by the Edinburgh Genome Foundry (S. Rosser). This library was then screened using the optimised Nanoglo DLR assay (Nano-Glo Dual-Luciferase Reporter Assay, Promega) in 384 well format. Each plate was transiently transfected together with PGK-FFLuc in a 1:10 ratio into GSC7 cells. 2 days later a Nanoglo DLR assay was performed and assayed on a plate reader.
# Cells were seeded in 384 well plates using a multidrop and transfected the following day using the CyBio Felix. Two days later the experiment was terminated with a Nanoglo DLR assay and all hits with a fold change to mCMV greater than 10 were Sanger sequenced and mapped back to the genome.
# Cells were seeded at the required density. The following day the transfection was carried out. For this the Plus reagent and Lipofectamine LTX (Life Technologies, 15338030) were each diluted in half the volume of Opti-MEM I Reduced-Serum Medium (further referred to as Optimem) (Life Technologies, 31985062). Following this step, the Plus reagent/Optimem premix was added to all DNA samples followed by the Lipofectamine LTX/Optimem premix. The transfection mix was incubated for 5 min at room temperature and then carefully dropped on the cells. Generally, no media change was carried out. Cells were analysed two days following transfection.
# This assay consists of two steps. The transfection was carried out using a normalisation plasmid PGK-Firefly-Luciferase (Promega, E5011) that was transfected in a 1/10 ratio with the plasmid of interest. First, the Firefly Luciferase activity is measured which allows to normalise to transfection efficiency. In a second step, the activity of Nanoluc is determined which is the readout of the plasmid of interest. Cells were washed 3× with PBS and 20 μl was left in the 96 well plate after the final wash (25 μl in 384 well). Oneglo buffer was added and the plate was shaken for 5 min at 480 rpm to allow cell lysis. 20 μl cell lysate in 96 well format or 25 μl cell lysate in 384 well format was then transferred into the corresponding opaque white plate and luminescence was measured at for 0.1 s per well using the Ensight Multimode Plate Reader. For the following Nanoluc reaction in a 96 well format 2 μl cell lysate was transferred into an opaque white plate containing 40 μl PBS, and 20 μl Stopglo buffer, supplemented with substrate, was added to each well. In a 384 well format 20 μl Stopglo buffer containing substrate were added on top of the undiluted cell lysate. The plate was shaken again for 5 min at 480 rpm to quench the firefly luciferase reaction and ensure good mixing. Nanoluc activity was measured for 0.1 s per well, again using Ensight Multimode Plate Reader.
# Data obtained by the Nanoluc reaction was normalised to Firefly reaction to account for well-to-well variability of transfection efficiency. Normalised data were used to calculate the fold change to the empty vector control mCMV.
row,Molecule,Fold change (Median) [fold]
1,B1,20.7
2,B2,24.9
3,B3,25.2
4,B4,21.2
5,B5,24.9
6,B6,26.2
7,B7,26.4
8,B8,25.1
